Reference: patent US11814439

Legend:
[1] = biological target: CD20 on Jeko-1, Raji and Daudi cells (human) (UniProt P11836); experiment: FACS on Raji cells, PE anti-human secondary antibody
[2] = biological target: CD20 on Jeko-1, Raji and Daudi cells (human) (UniProt P11836); experiment: FACS on Daudi cells, PE anti-human secondary antibody
[3] = biological target: FcγIIIA Receptor on the effector cells (CD16 / FcγRIII) (human) (UniProt P08637); experiment: cell-based or functional assay
[4] = biological target: C1q Receptor in the complement system (rabbit serum as the source of complement) (rabbit); experiment: cell-based or functional assay

Chain of FcγIIIA Receptor on the effector cells (CD16 / FcγRIII) (human) (P08637 17-254): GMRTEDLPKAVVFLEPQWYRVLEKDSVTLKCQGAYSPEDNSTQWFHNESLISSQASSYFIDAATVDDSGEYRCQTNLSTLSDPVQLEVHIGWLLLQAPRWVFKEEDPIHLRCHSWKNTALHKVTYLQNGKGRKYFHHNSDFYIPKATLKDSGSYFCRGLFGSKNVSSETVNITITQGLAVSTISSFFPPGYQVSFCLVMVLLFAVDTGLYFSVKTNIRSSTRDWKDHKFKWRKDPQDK
Chain of CD20 on Jeko-1, Raji and Daudi cells (human) (P11836 whole entry): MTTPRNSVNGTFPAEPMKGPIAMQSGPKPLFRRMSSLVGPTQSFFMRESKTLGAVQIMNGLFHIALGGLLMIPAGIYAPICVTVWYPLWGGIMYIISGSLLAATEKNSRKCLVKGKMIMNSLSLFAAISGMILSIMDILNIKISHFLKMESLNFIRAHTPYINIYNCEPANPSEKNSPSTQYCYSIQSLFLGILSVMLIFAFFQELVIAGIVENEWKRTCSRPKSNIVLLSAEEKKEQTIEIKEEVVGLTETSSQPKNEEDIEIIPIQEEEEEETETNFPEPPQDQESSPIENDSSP

EC50 [1] [ng/mL]	EC50 [2] [ng/mL]	EC50 of ADCC assay Using Primary NK Cells [3] [µg/mL]	CDC EC50 (Jeko-1 cells, rabbit complement) [4] [µg/mL]	Substance
0.00873	0.000793	500	0.353	ARZERRA (ofatumumab) (antibody)
		19		GAZYVA (obinutuzumab) (antibody)
			1.21	OCREVUS (ocrelizumab) (antibody)
		1390	0.245	RITUXAN (rituximab) (antibody)
